Laboratory results from FireProtDB (doi:10.1006/jmbi.2001.4521).

B1: Growth factor receptor-bound protein 2, Q08012 (parent)
chain: MEAIAKHDFSATADDELSFRKTQILKILNMEDDSNWYRAELDGKEGLIPSNYIEMKNHDWYYGRITRADAEKLLSNKHEGAFLIRISESSPGDFSLSVKCPDGVQHFKVLRDAQSKFFLWVVKFNSLNELVEYHRTASVSRSQDVKLRDMIPEEMLVQALYDFVPQESGELDFRRGDVITVTDRSDENWWNGEIGNRKGIFPATYVTPYHS

Variants of: B1
Conditions: Drosophila melanogaster, pH 6, Thermal, CD, phosphate 50 mM, Na2SO4 0.4 M, structure 2A36, whole UniProt chain shown; for unfolding free energy: 25 °C

Row | Variant | unfolding free energy [kcal/mol] | Tm [°C] | change of melting temperature, mutant - wild type (higher = more stable) [°C]
1 | T22K | 1.8 | 65 | 1.3
2 | T22N | 3.1 | – | –
3 | T22A | 2.2 | 66.9 | 3.2
4 | T22F | 3.1 | 66.7 | 3
5 | T22D | 3.3 | 73.1 | 9.4
6 | T22G | 4.2 | 84.8 | 21.1
7 | T22S | 2.4 | 63.5 | -0.2
8 | T22L | – | 58 | -5.7
9 | T22G Q23D | – | 88.9 | 25.2
